Measured values as given in paper PMC9334453.

Target: murine monoclonal IgE antibody 2F5 (anti-profilin Hev b 8)
Experiment: ELISA
Conditions: chain shown with the change; n = 4; parent: est. 0.26; read off a plot

B1: recombinant maize profilin (rZea m 12) E128D (protein)
chain: GMSWQAYVDDHLLCDIEGQHLSAAAIVGHDGSVWAQSENFPELKPEEVAGMIKDFDEPGTLAPTGLFVGGTKYMVIQGEPGVVIRGKKGTGGITIKKTGMSLIIGIYDEPMTPGQCNMVVERLGDYLIDQGF
  response: 0.4 Abs 405nm
